From PMC4132714, “Phospho-dependent and phospho-independent interactions of the helicase UPF1 with the NMD factors SMG5–SMG7 and SMG6” (Nucleic Acids Research, 2014)
Ends that are not written are not given here.

T1: SMG5–7 TPR complex (heterodimer of SMG5 TPR and SMG7 TPR) (human, UniProt Q9UPR3 1-803; Q92540 1-499, Δ408–632)
T1 construct: SMG5, human, residues 1–803 with the predicted insertion 408–632 removed (SMG5 TPR); SMG7, human, residues 1–499 (SMG7 TPR); Written SMG5-His and His-(TEV)-SMG7 in the methods; also called SMG5–SMG7; SMG5–7 TPR heterodimer; not shown: His, N-terminal, cleaved; copies: 1 + 1
T1 sequence (looked up) 1: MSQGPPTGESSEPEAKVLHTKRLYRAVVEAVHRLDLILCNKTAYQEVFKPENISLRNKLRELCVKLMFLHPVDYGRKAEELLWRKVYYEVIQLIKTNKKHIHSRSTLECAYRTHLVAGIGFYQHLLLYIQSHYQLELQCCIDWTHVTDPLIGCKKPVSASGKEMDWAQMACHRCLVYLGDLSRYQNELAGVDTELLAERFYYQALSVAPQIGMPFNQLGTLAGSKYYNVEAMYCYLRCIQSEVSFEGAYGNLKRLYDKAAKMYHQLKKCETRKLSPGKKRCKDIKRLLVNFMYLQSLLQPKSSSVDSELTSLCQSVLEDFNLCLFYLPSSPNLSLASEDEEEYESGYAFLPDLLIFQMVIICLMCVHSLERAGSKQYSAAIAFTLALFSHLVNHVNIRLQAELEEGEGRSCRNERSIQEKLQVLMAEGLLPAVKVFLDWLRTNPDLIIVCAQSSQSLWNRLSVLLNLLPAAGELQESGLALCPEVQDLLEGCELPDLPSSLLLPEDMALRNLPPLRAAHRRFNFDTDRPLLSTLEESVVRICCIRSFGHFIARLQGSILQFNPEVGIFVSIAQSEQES
T1 sequence (looked up) 2: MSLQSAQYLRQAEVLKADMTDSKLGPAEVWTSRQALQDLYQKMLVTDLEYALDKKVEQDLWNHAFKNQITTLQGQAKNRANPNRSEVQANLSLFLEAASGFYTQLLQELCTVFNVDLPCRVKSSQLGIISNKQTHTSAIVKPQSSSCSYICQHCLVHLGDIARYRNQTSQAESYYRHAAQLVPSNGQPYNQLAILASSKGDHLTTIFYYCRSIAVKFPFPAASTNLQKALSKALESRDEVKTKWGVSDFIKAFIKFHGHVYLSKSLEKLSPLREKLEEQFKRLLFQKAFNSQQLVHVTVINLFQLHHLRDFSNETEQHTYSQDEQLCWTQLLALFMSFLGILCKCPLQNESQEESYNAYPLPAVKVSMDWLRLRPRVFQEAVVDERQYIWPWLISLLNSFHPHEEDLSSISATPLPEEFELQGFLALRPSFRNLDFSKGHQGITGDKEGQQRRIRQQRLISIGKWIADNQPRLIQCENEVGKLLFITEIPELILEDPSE


Columns and labels:
[1] = target: T1, SMG5–7 TPR complex (heterodimer of SMG5 …); assay: pull-down; GST pull-down, one prey: ∼2 μg GST-tagged bait with equal amount of untagged prey in 20 mM HEPES pH 7.5, 125 mM NaCl, 2% glycerol, 2 mM DTT (45 μl), 45 min at room temperature; glutathione–Sepharose beads in 20 mM HEPES pH 7.5, 150 mM NaCl, 10% glycerol, 2 mM DTT, 0.1% NP-40, 1 h at 4°C; eluted with glutathione; SDS-PAGE, Coomassie; GST-UPF1 constructs pre-treated with SMG1 wt or SMG1 KD where indicated; settings: both partners purified
[2] = target: T2, SMG6fl (HA-Flag tagged, purified from HEK 293T cells) (human, UniProt Q86US8 1-1419); assay: pull-down; GST pull-down as in Figure 1C with GST-UPF1fl as bait and several preys added together (SMG6fl, UPF2, UPF3, EJC; or SMG6fl and SMG5–7 TPR after treatment with SMG1 wt or KD); Coomassie; settings: both partners purified
T2 construct: SMG6, human, full length (SMG6CT ends at residue 1419)
T2 sequence (Q86US8 whole entry): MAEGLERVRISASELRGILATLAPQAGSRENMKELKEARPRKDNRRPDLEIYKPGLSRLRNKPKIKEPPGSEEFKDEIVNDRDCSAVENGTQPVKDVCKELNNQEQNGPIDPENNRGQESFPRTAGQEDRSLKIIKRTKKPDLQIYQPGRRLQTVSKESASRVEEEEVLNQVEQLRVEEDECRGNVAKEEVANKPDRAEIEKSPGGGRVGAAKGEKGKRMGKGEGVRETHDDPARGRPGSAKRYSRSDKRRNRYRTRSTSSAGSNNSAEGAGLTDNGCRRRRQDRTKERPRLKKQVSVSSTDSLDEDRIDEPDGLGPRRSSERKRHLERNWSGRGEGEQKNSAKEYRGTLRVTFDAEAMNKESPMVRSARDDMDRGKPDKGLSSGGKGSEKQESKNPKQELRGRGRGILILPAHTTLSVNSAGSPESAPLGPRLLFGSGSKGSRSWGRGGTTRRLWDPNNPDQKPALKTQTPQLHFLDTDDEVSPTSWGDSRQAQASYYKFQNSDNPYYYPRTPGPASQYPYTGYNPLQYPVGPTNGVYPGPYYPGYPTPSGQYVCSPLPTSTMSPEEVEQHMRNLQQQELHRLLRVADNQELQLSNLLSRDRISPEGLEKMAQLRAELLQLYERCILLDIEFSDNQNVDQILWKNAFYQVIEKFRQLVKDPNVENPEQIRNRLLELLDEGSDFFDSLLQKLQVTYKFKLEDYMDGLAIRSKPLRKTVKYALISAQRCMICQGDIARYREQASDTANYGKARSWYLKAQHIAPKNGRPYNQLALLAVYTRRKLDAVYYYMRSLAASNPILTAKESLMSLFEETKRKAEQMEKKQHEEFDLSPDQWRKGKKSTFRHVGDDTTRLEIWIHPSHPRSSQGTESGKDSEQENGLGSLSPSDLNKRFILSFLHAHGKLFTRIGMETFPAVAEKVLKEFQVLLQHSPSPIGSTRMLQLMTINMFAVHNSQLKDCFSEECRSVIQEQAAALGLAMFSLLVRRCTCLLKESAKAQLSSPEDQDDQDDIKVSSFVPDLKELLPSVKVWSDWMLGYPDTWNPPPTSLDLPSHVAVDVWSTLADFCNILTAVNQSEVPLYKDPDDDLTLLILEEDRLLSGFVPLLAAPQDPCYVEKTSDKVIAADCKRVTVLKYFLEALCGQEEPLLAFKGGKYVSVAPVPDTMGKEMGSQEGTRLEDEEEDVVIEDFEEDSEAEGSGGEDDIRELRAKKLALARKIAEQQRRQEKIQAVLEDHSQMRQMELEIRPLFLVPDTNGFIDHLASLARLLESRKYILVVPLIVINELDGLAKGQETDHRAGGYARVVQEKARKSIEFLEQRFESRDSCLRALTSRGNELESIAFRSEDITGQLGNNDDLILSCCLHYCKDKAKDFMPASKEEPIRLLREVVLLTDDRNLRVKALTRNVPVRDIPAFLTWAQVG

binding result [1] | binding result [2] | Binder
binds |  | GST-UPF1CT (residues 917–1118) phosphorylated in vitro by SMG1 wt (domain or fragment, human, UniProt Q92900-2 917-1118, looked up, phosphorylated in vitro by SMG1 at SQ motifs; sites not stated for this construct, also called C-terminal tail of UPF1; source: E. coli BL21 (DE3) STAR pRARE, purified, then phosphorylated in vitro with SMG1 wt) RKLVNTINPGARFMTTAMYDAREAIIPGSVYDRSSQGRPSSMYFQTHDQIGMISAGPSHVAAMNIPIPFNLVMPPMPPPGYFGQANGPAAGRGTPKGKTGRGGRQKNRFGLPGPSQTNLPNSQASQDVASQPFSQGALTQGYISMSQPSQMSQPGLSQPELSQDSYLGDEFKSQIDVALSQDSTYQGERAYQHGGVTGLSQY
binds |  | GST-UPF1CT1 (residues 1052–1118) phosphorylated in vitro by SMG1 wt (domain or fragment, human, UniProt Q92900-2 1052-1118, looked up, also: phosphorylated in vitro by SMG1 at SQ motifs, sites not given here, source: E. coli, purified, then phosphorylated in vitro with SMG1 wt) {GST}-GALTQGYISMSQPSQMSQPGLSQPELSQDSYLGDEFKSQIDVALSQDSTYQGERAYQHGGVTGLSQY
binds |  | PGLSQPELSQDSYLGDEFKSQIDVALSQDSTYQGERAYQHGGVTGLSQY (domain or fragment, human, UniProt Q92900-2 1070-1118, looked up, not fully specified (N-terminus); also: phosphorylated in vitro by SMG1, sites not given here, GST fusion partner not in chain, source: E. coli, purified, then phosphorylated in vitro with SMG1 wt) [GST-UPF1CT2 (residues 1070–1118) phosphorylated in vitro by SMG1 wt]
 | binds | GST-UPF1fl, unphosphorylated (mock-treated with SMG1 KD or not treated) (natural protein, human, UniProt Q92900-2 1-1118, looked up, UPF1, human; also called full-length GST-UPF1; unphosphorylated UPF1) MSVEAYGPSSQTLTFLDTEEAELLGADTQGSEFEFTDFTLPSQTQTPPGGPGGPGGGGAGGPGGAGAGAAAGQLDAQVGPEGILQNGAVDDSVAKTSQLLAELNFEEDEEDTYYTKDLPIHACSYCGIHDPACVVYCNTSKKWFCNGRGNTSGSHIVNHLVRAKCKEVTLHKDGPLGETVLECYNCGCRNVFLLGFIPAKADSVVVLLCRQPCASQSSLKDINWDSSQWQPLIQDRCFLSWLVKIPSEQEQLRARQITAQQINKLEELWKENPSATLEDLEKPGVDEEPQHVLLRYEDAYQYQNIFGPLVKLEADYDKKLKESQTQDNITVRWDLGLNKKRIAYFTLPKTDSDMRLMQGDEICLRYKGDLAPLWKGIGHVIKVPDNYGDEIAIELRSSVGAPVEVTHNFQVDFVWKSTSFDRMQSALKTFAVDETSVSGYIYHKLLGHEVEDVIIKCQLPKRFTAQGLPDLNHSQVYAVKTVLQRPLSLIQGPPGTGKTVTSATIVYHLARQGNGPVLVCAPSNIAVDQLTEKIHQTGLKVVRLCAKSREAIDSPVSFLALHNQIRNMDSMPELQKLQQLKDETGELSSADEKRYRALKRTAERELLMNADVICCTCVGAGDPRLAKMQFRSILIDESTQATEPECMVPVVLGAKQLILVGDHCQLGPVVMCKKAAKAGLSQSLFERLVVLGIRPIRLQVQYRMHPALSAFPSNIFYEGSLQNGVTAADRVKKGFDFQWPQPDKPMFFYVTQGQEEIASSGTSYLNRTEAANVEKITTKLLKAGAKPDQIGIITPYEGQRSYLVQYMQFSGSLHTKLYQEVEIASVDAFQGREKDFIILSCVRANEHQGIGFLNDPRRLNVALTRARYGVIIVGNPKALSKQPLWNHLLNYYKEQKVLVEGPLNNLRESLMQFSKPRKLVNTINPGARFMTTAMYDAREAIIPGSVYDRSSQGRPSSMYFQTHDQIGMISAGPSHVAAMNIPIPFNLVMPPMPPPGYFGQANGPAAGRGTPKGKTGRGGRQKNRFGLPGPSQTNLPNSQASQDVASQPFSQGALTQGYISMSQPSQMSQPGLSQPELSQDSYLGDEFKSQIDVALSQDSTYQGERAYQHGGVTGLSQY
 | binds | GST-UPF1fl phosphorylated in vitro by SMG1 wt (natural protein, human, UniProt Q92900-2 1-1118, looked up, phosphorylated by SMG1 at SQ and TQ motifs present exclusively in the N- and C-terminal tails; detected sites include Thr28, Ser1078, Ser1096 and Ser1116, UPF1, human; also called phospho-UPF1; phospho-UPF1fl) MSVEAYGPSSQTLTFLDTEEAELLGADTQGSEFEFTDFTLPSQTQTPPGGPGGPGGGGAGGPGGAGAGAAAGQLDAQVGPEGILQNGAVDDSVAKTSQLLAELNFEEDEEDTYYTKDLPIHACSYCGIHDPACVVYCNTSKKWFCNGRGNTSGSHIVNHLVRAKCKEVTLHKDGPLGETVLECYNCGCRNVFLLGFIPAKADSVVVLLCRQPCASQSSLKDINWDSSQWQPLIQDRCFLSWLVKIPSEQEQLRARQITAQQINKLEELWKENPSATLEDLEKPGVDEEPQHVLLRYEDAYQYQNIFGPLVKLEADYDKKLKESQTQDNITVRWDLGLNKKRIAYFTLPKTDSDMRLMQGDEICLRYKGDLAPLWKGIGHVIKVPDNYGDEIAIELRSSVGAPVEVTHNFQVDFVWKSTSFDRMQSALKTFAVDETSVSGYIYHKLLGHEVEDVIIKCQLPKRFTAQGLPDLNHSQVYAVKTVLQRPLSLIQGPPGTGKTVTSATIVYHLARQGNGPVLVCAPSNIAVDQLTEKIHQTGLKVVRLCAKSREAIDSPVSFLALHNQIRNMDSMPELQKLQQLKDETGELSSADEKRYRALKRTAERELLMNADVICCTCVGAGDPRLAKMQFRSILIDESTQATEPECMVPVVLGAKQLILVGDHCQLGPVVMCKKAAKAGLSQSLFERLVVLGIRPIRLQVQYRMHPALSAFPSNIFYEGSLQNGVTAADRVKKGFDFQWPQPDKPMFFYVTQGQEEIASSGTSYLNRTEAANVEKITTKLLKAGAKPDQIGIITPYEGQRSYLVQYMQFSGSLHTKLYQEVEIASVDAFQGREKDFIILSCVRANEHQGIGFLNDPRRLNVALTRARYGVIIVGNPKALSKQPLWNHLLNYYKEQKVLVEGPLNNLRESLMQFSKPRKLVNTINPGARFMTTAMYDAREAIIPGSVYDRSSQGRPSSMYFQTHDQIGMISAGPSHVAAMNIPIPFNLVMPPMPPPGYFGQANGPAAGRGTPKGKTGRGGRQKNRFGLPGPSQTNLPNSQASQDVASQPFSQGALTQGYISMSQPSQMSQPGLSQPELSQDSYLGDEFKSQIDVALSQDSTYQGERAYQHGGVTGLSQY
binds |  | {GST}-EFKSQIDVALSQDSTYQGERAYQHGGVTGLSQY (domain or fragment, human, UniProt Q92900-2 1086-1118, looked up, also: phosphorylated in vitro by SMG1 at SQ motifs, sites not given here, source: E. coli, purified, then phosphorylated in vitro with SMG1 wt) [GST-UPF1CT4 (residues 1086–1118) phosphorylated in vitro by SMG1 wt]
